Measured values: patent publication US20180119164A1

What was measured:
Test in all cases: cell-based or functional assay
[1] = molecular target: Env of HIV pseudovirus ADA (HIV strain ADA)
[2] = molecular target: Env of HIV pseudovirus DU422.1 (HIV strain DU422.1)
[3] = molecular target: Env of HIV pseudovirus JRFL (HIV strain JRFL)
[4] = molecular target: Env of HIV pseudovirus ZM214M (HIV strain ZM214M)
[5] = molecular target: Env of HIV pseudovirus TRO.11 (HIV strain TRO.11)
[6] = molecular target: Env of HIV pseudovirus PVO (HIV strain PVO)
[7] = molecular target: Env of HIV pseudovirus YU2 (HIV strain YU2) (UniProt P35961)
Sequence of UniProt P35961 (P35961 32-843 limits assumed): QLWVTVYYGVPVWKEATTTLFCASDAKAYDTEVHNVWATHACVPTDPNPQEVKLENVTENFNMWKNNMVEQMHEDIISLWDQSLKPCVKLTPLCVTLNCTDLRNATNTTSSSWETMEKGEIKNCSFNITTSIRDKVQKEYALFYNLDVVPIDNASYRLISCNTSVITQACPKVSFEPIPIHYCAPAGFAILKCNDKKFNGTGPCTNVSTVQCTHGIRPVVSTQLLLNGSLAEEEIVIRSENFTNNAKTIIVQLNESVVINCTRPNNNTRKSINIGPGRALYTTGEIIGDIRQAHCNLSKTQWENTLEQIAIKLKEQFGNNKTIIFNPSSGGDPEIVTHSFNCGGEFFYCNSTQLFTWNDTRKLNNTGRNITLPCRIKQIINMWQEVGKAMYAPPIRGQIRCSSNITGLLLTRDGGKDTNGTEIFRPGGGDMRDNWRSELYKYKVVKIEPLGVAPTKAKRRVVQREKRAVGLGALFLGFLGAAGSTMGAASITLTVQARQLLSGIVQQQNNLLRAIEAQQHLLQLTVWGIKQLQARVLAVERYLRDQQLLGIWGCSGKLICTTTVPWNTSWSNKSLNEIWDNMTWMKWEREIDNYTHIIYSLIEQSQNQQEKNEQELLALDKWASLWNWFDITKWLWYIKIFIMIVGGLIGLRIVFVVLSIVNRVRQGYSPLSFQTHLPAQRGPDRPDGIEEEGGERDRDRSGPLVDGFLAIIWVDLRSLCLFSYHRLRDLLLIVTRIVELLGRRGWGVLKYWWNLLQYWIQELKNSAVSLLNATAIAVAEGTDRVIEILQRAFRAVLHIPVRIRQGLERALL

[8] = molecular target: Env of HIV pseudovirus CAP45 (HIV strain CAP45)
[9] = molecular target: Env of HIV pseudovirus MN (HIV strain MN) (UniProt P05877)
Sequence of UniProt P05877 (P05877 32-856 limits assumed): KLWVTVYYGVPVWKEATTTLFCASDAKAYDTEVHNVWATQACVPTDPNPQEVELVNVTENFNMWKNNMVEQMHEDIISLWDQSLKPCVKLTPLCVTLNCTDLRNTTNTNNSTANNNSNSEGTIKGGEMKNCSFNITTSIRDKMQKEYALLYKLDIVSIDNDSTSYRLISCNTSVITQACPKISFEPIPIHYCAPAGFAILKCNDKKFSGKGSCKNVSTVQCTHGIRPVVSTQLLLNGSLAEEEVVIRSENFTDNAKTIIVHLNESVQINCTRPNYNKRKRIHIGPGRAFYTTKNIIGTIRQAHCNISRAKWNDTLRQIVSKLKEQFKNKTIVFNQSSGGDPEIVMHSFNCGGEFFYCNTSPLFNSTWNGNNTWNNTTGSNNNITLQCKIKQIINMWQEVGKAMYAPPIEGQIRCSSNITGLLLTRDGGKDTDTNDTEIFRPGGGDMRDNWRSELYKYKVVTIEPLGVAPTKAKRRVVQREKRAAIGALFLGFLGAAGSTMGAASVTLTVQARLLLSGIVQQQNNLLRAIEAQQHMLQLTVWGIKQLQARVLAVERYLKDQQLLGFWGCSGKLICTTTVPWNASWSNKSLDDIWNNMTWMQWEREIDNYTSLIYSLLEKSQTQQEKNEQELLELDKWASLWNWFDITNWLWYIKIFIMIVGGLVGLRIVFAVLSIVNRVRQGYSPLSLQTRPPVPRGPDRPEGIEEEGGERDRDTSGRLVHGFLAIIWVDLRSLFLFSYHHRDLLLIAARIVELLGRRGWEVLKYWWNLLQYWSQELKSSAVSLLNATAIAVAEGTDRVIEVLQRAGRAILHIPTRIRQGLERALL

[10] = molecular target: Env of HIV pseudovirus DU156.12 (HIV strain DU156.12)
[11] = molecular target: Env of HIV pseudovirus JRCSF (HIV strain JRCSF) (UniProt P20871)
Sequence of UniProt P20871 (P20871 32-848 limits assumed): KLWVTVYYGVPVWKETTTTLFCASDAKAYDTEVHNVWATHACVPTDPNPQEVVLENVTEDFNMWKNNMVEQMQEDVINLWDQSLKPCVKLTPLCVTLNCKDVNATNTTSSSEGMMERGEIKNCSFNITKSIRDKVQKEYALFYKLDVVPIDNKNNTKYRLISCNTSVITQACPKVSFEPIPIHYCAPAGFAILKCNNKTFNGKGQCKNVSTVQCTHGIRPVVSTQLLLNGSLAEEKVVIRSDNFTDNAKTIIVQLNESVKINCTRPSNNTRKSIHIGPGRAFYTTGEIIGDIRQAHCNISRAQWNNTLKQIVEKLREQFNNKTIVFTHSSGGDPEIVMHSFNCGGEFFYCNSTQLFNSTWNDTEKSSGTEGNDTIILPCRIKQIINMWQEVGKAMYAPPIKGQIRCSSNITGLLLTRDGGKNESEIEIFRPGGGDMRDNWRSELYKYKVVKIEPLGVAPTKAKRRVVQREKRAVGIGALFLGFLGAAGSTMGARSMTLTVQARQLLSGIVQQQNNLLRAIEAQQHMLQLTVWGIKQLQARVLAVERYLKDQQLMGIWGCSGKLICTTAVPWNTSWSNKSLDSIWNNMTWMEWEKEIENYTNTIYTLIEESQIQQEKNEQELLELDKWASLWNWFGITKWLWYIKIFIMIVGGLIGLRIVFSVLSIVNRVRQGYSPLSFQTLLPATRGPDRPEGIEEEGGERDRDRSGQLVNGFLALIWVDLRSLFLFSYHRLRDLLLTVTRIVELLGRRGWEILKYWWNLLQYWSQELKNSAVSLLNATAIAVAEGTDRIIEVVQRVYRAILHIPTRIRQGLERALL

Substance | IC50, pseudovirus neutralization (TZM-bl luciferase) [1] | IC50, pseudovirus neutralization (TZM-bl luciferase) [2] | IC50, pseudovirus neutralization (TZM-bl luciferase) [3] | IC50, pseudovirus neutralization (TZM-bl luciferase) [4] | IC50, pseudovirus neutralization (TZM-bl luciferase) [5] | IC50, pseudovirus neutralization (TZM-bl luciferase) [6] | IC50, pseudovirus neutralization (TZM-bl luciferase) [7] | IC50, pseudovirus neutralization (TZM-bl luciferase) [8] | IC50, pseudovirus neutralization (TZM-bl luciferase) [9] | IC50, pseudovirus neutralization (TZM-bl luciferase) [10] | IC50, pseudovirus neutralization (TZM-bl luciferase) [11]
^ΔXFPG9SulfSia (antibody) | 40.2 µg/mL | 6.6 µg/mL | > 50 µg/mL | > 50 µg/mL | > 50 µg/mL | > 50 µg/mL | > 50 µg/mL | < 0.02 µg/mL | > 50 µg/mL | 0.9 µg/mL | 0.03 µg/mL
^ΔXFPG9Sulf (antibody) | 37.4 µg/mL | 14.3 µg/mL | > 50 µg/mL | > 50 µg/mL | > 50 µg/mL | > 50 µg/mL | > 50 µg/mL | 0.03 µg/mL | > 50 µg/mL | 1.2 µg/mL | < 0.02 µg/mL
^ΔXFPG9 (antibody) | > 50 µg/mL | > 50 µg/mL | > 50 µg/mL | > 50 µg/mL | > 50 µg/mL | > 50 µg/mL | > 50 µg/mL | 0.65 µg/mL | > 50 µg/mL | > 50 µg/mL | 0.19 µg/mL
^CHOPG9 (antibody) | 42.8 µg/mL | 10.9 µg/mL | > 50 µg/mL | > 50 µg/mL | > 50 µg/mL | > 50 µg/mL | > 50 µg/mL | < 0.02 µg/mL | > 50 µg/mL | 0.35 µg/mL | < 0.02 µg/mL
